# Test results published in PMC8080530, “Glucocorticoid receptor Thr524 phosphorylation by MINK1 induces interactions with 14-3-3 protein regulators” (The Journal of Biological Chemistry, 2021).
# Non-standard residues stand in square brackets, D forms with d. Residues, ends and D or L forms follow the SMILES beside them. pT = C[C@@H](OP(=O)(O)O)[C@H](N)C(=O)O; pS = N[C@@H](COP(=O)(O)O)C(=O)O
# Experiments:
# 14-3-3σ = biological target: T1, 14-3-3σ (Homo sapiens, UniProt P31947); experiment: FP assay with GR phosphorylated peptides and 14-3-3σ; format: binding; conditions: FITC-labeled peptide titrated with 14-3-3σ, 30 min RT, triplicates
# T1 construct: Full-length expression and purification of 14-3-3; made in house; host or cells: E. coli BL21 (DE3)STAR
# T1 sequence (P31947 1-248): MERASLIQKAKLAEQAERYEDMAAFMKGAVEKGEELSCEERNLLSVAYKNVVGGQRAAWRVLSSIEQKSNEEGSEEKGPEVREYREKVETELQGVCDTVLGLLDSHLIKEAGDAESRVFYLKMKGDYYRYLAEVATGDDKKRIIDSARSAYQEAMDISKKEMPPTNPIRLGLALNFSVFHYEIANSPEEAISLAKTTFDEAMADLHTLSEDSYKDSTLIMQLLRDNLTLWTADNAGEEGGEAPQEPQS
# Procedure: After 30-min incubation at RT, the plates were read on a plate reader PHERAstar (BMG LABTECH GmbH) for FP signal using […] and standard excitation (485 nm) and emission (520 nm). Measurements were performed as triplicates. Binding data were fit to a standard Hill equation using the software Genedata Screener. The figures were made using the software GraphPad Prism 8. FP data were expressed as millipolarization (mP) units, and the dynamic range (ΔmP) was the difference of the signals from the bound peptide and free peptide. Errors are the standard error of the fit.
# 14-3-3ζ = biological target: T2, 14-3-3ζ (Homo sapiens, UniProt P63104); experiment: FP assay with GR phosphorylated peptides and 14-3-3ζ; format: binding
# T2 construct: Full-length expression and purification of 14-3-3; made in house; host or cells: E. coli BL21 (DE3)STAR
# T2 sequence (P63104 1-245): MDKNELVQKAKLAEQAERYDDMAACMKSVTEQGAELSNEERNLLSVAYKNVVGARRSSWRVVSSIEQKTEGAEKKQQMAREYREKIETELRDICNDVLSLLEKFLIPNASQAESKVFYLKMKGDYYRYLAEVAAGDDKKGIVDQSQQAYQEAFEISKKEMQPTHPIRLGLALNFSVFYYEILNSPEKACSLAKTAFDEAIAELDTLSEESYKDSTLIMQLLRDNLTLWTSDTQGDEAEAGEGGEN
# How it was run: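 Fluorescence polarization (ex 485/em 520 nm) was read in triplicate after 30-min RT incubation. Binding data were fitted to a standard Hill equation and expressed in mP units. The dynamic range (ΔmP) is the difference between bound and free peptide signals.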
# [1] = test system: GR–14-3-3 interaction in HEK293 and U2OS cells; experiment: Co-IP and far-Western blotting overlay of GR with 14-3-3 after cell stimulation; format: cell-based; conditions: HEK293 and U2OS cells transfected with WT GR, overnight starvation; forskolin 20 µM for 30 min, calyculin A 50 nM for 10 min
# Procedure: The interaction between the full-length GR and 14-3-3 was investigated in a cellular system to validate the relevance of the peptide studies.
# The HEK293 and U2OS cell lines (American Type Culture Collection) were cultured in Dulbecco's modified Eagle's medium, supplemented with 10% fetal bovine serum and 1% penicillin-streptomycin (10,000 U/ml) at 37 °C in a 5% CO2 environment. For the Co-IP assay, 3 × 10^6 cells were seeded in a 15-cm cell culture dish. At 60 to 70% confluence, the HEK293 cells were transiently transfected with a mixture of 6-μg GFP-MINK1 or GFP-GR DNA and 24-μl lipofectamine 2000 in 2-ml Opti-MEM for 24 h. […]
# (§1) Cells were collected and lysed in radioimmunoprecipitation assay buffer containing 50-mM Tris-HCl, pH 8, 150-mM NaCl, 1-mM EDTA, 0.1% SDS, 1% Na deoxycholate, and 1% NP-40 supplemented with a protease inhibitor cocktail. After lysis, the concentration of protein was quantified by the Bradford test. […]
# (§2) Eluted proteins were resolved on a NuPAGE 4 to 12% Bis-Tris Protein Gels, 1.0 mm. […] After washing with TBST, the blots were detected using an Odyssey CLx Imaging system (LI-COR). […]
# Samples containing proteins from the Co-IP assay or GR LBD in vitro phosphorylated were loaded on a NuPAGE 4 to 12% Bis-Tris Protein Gels, 1.0 mm, and separated. […] After washing with TBST, the blots were detected using an Odyssey CLx Imaging system (LI-COR). […]
# [2] = test system: MINK1–14-3-3 interaction in HEK293 cells; experiment: Co-IP and far-Western blotting overlay of MINK1 with 14-3-3 after cell stimulation; format: cell-based; conditions: HEK293 cells transfected with GFP-MINK1; forskolin 20 µM for 30 min, calyculin A 50 nM for 10 min
# Procedure: The HEK293 and U2OS cell lines (American Type Culture Collection) were cultured in Dulbecco's modified Eagle's medium, supplemented with 10% fetal bovine serum and 1% penicillin-streptomycin (10,000 U/ml) at 37 °C in a 5% CO2 environment. For the Co-IP assay, 3 × 10^6 cells were seeded in a 15-cm cell culture dish. At 60 to 70% confluence, the HEK293 cells were transiently transfected with a mixture of 6-μg GFP-MINK1 or GFP-GR DNA and 24-μl lipofectamine 2000 in 2-ml Opti-MEM for 24 h. At 60 to 70% confluence, the U2OS cells were transiently transfected with a mixture of 8-μg GFP-MINK1 or GFP-GR and/or FLAG-MINK1 DNA and 32-μl X-tremeGENE 9 DNA in 2 ml Opti-MEM for 24 h. Stimulation with forskolin, H89, IGF-1, and PI303 was preceded by a cell starvation step where the cells were incubated with DMEM without supplements overnight. […]
# as §1, §2
# [3] = biological target: human 14-3-3ζ, full length, 6His-Linker-h14-3-3 (human) (UniProt P63104); experiment: SPR; Biacore 3000; 6His-tagged 14-3-3 immobilised on an NTA chip (2000 RU 14-3-3ζ, 4000 RU 14-3-3σ); peptides injected in HBS P+ buffer with 1 or 3% DMSO, 20 μl/min; Hill fit; triplicates
# [4] = biological target: GR_pS134, FITC-labelled 13-mer phosphopeptide (human) (UniProt P04150); experiment: fluorescence polarisation; FITC-labelled peptide at 60 nM (monophosphorylated) or 10 nM (doubly phosphorylated) titrated with 14-3-3ζ or 14-3-3σ in dilution series from 300 μM or 150 μM; 30 min at RT; 384-well plate; Hill fit; triplicates
# [5] = biological target: GR_pT524-pS617 with R614 replaced by alanine (alanine scan) (human) (UniProt P04150); experiment: as above
# [6] = biological target: GR_pT524-pT562, FITC-labelled 51-mer doubly phosphorylated peptide with the native sequence as a linker (human) (UniProt P04150); experiment: as above
# Chain of GR_pT524-pT562, FITC-labelled 51-mer doubly phosphorylated peptide with the native sequence as a linker (human) (P04150 518-568): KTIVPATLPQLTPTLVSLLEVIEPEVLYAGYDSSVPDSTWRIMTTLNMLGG
# [7] = biological target: GR_pS524-pS617, FITC-labelled diphosphoserine analogue of GR_pT524-pS617 (human) (UniProt P04150); experiment: as above
# [8] = biological target: GR_pT524-pS617 with pT524 replaced by alanine (alanine scan) (human) (UniProt P04150); experiment: as above
# [9] = biological target: GR_pT524-pS617 with K518 replaced by alanine (alanine scan) (human) (UniProt P04150); experiment: as above
# [10] = biological target: GR_pT524-pS617, FITC-labelled 31-mer doubly phosphorylated peptide (human) (UniProt P04150); experiment: as above
# [11] = biological target: GR_pT524-pS617 with pS617 replaced by alanine (alanine scan) (human) (UniProt P04150); experiment: as above
# [12] = biological target: GR_pS134-pT524, FITC-labelled 31-mer doubly phosphorylated peptide (human) (UniProt P04150); experiment: as above
# [13] = biological target: GR_pT524-pS617 with P526 replaced by alanine (alanine scan) (human) (UniProt P04150); experiment: as above
# Chain of GR_pT524-pT562, 51-mer doubly phosphorylated peptide used for SPR (P04150 518-568): as above
compound,measurement,setting,value
CC[C@H](C)[C@H](NC(=O)[C@@H](NC(=O)[C@H](CCCCN)NC(C)=O)[C@@H](C)O)C(=O)N[C@H](C(=O)N1CCC[C@H]1C(=O)N[C@@H](C)C(=O)N[C@H](C(=O)N[C@@H](CC(C)C)C(=O)N1CCC[C@H]1C(=O)N[C@@H](CCC(N)=O)C(=O)N[C@@H](CC(C)C)C(=O)N[C@H](C(=O)N1CCC[C@H]1C(=O)NCC(=O)NCC(=O)NCC(=O)NCC(=O)NCC(=O)N[C@@H](CCCNC(=N)N)C(=O)N[C@@H](CO)C(=O)N[C@@H](Cc1ccc(O)cc1)C(=O)N[C@@H](CCCNC(=N)N)C(=O)N[C@@H](CCC(N)=O)C(=O)N[C@@H](CO)C(=O)N[C@@H](COP(=O)(O)O)C(=O)N[C@@H](C)C(=O)N[C@@H](CC(N)=O)C(=O)N[C@@H](CC(C)C)C(=O)N[C@@H](CC(C)C)C(=O)N[C@@H](CS)C(=O)N[C@@H](Cc1ccccc1)C(=O)O)[C@@H](C)O)[C@@H](C)OP(=O)(O)O)C(C)C [GR_pT524-pS617] (Ac-KTIVPA[pT]LPQLTPGGGGGRSYRQS[pS]ANLLCF-OH),Kd,14-3-3σ,53 ± 26 nM
same,Kd,"14-3-3ζ; FP, doubly phosphorylated 31-mer peptides, triplicates, read-out: Kd with 14-3-3ζ (values in nM)",18 nM
same,fold improvement of binding affinity with 14-3-3ζ compared with the individual monomers,14-3-3ζ; avidity effect of dimeric peptide,1000 fold
COC[C@@H]([C@H](O)[C@H](O)C(=O)NCC[C@H](C)c1nc(/C=C/C[C@@H]2O[C@]3(C[C@@H](O)[C@@H]2C)O[C@H]([C@H](C[C@H](O)[C@H](C)[C@H](O)[C@H](C)/C=C(C)/C(C)=C/C=C/C(C)=C\C#N)OC)[C@H](OP(=O)(O)O)C3(C)C)co1)N(C)C [calyculin A],GR interaction with 14-3-3 proteins upon stimulation,[1],GR interacted with 14-3-3 proteins
same,MINK1 interaction with 14-3-3 upon stimulation,[2],MINK1 also interacts with 14-3-3
C=C[C@@]1(C)CC(=O)[C@]2(O)[C@@]3(C)[C@@H](O)CCC(C)(C)[C@@H]3[C@H](O)[C@H](OC(C)=O)[C@@]2(C)O1 [forskolin],GR interaction with 14-3-3 proteins upon stimulation,[1],GR interacted with 14-3-3 proteins
same,MINK1 interaction with 14-3-3 upon stimulation,[2],MINK1 also interacts with 14-3-3
"GR_pT524-pT562, 51-mer doubly phosphorylated peptide used for SPR (from UniProt P04150 518-568)",Kd,[3],15000 nM
"human 14-3-3ζ, full length, 6His-Linker-h14-3-3 (from UniProt P63104 1-245) (natural protein)",Kd,[4],90000 nM
same,Kd,[5],220 nM
same,Kd,[6],23000 nM
same,Kd,[7],140 nM
same,Kd,[8],120000 nM
same,Kd,[9],110 nM
same,Kd,[10],18 nM
same,Kd,[11],1300 nM
same,Kd,[12],550 nM
same,Kd,[13],1200 nM
